Source: US11697815B2, “Regulation of gene expression through aptamer-modulated polyadenylation” (MeiraGTx UK II Limited, priority 2016, dated 2023)

Key:
[1] = tested on: Renilla luciferase expression; assay: Renilla luciferase assay of HEK 293 cells transfected with pRL-SV40 constructs carrying U1 binding sites in the 3′ UTR; format: cell-based; conditions: for suppressive effect of U1 site on luciferase gene expression (in words): no ligand; for reduction fold (luciferase activity of mutant construct / wild type construct): compared to corresponding mutant construct; for inhibition of Renilla luciferase expression/activity: compared to pRL-SV40 control vector
Method: Plasmid constructs: oligonucleotides (oligos) containing either wild type consensus U1 binding sequence or its mutant sequence were synthesized (IDT). The synthesized oligos were cloned into the 3′ UTR of the pRL-SV40 luciferase expression vector (Promega) using Gibson Assembly Cloning Kit (NEB). Constructs were purified (Qiagen) and verified by DNA sequencing (Genewiz).
(§1) Transfection: 3.5×10^4 HEK 293 cells were plated in a 96-well flat bottom plate the day before transfection. Plasmid DNA (500 ng) was added to a tube or a 96-well U-bottom plate. Separately, TransIT-293 reagent (Mirus; 1.4 μl) was added to 50 μl Opti-mem I media (Life Technologies), and allowed to sit for 5 minutes at room temperature (“RT”). Then, 50 μl of this diluted transfection reagent was added to the DNA, mixed, and incubated at RT for 20 min. Finally, 7 μl of this solution was added to a well of cells in the 96-well plate.
(§2) Renilla luciferase assay of cultured cells: 24 hours after the media change, plates were removed from the incubator, and equilibrated to RT for several minutes on a lab bench, and the media aspirated. Glo-lysis buffer (Promega, 100 μl, RT) was added, and the plates allowed to remain at room temp for at least 5 minutes. Then, the well contents were mixed by 50 μl trituration, and 20 μl of each well was mixed with 20 μl of Renilla-glo reagent in a solid-white 384-well plate. Ten minutes later, luminescence was measured using a Tecan machine with 500 msec read time. The luciferase activity was expressed as mean relative light unit (RLU)±SD.
The stem-loop sequences containing a wild type 9 nt U1 binding sequence were synthesized (IDT) and cloned into pRL-SV40 vector. The construct sequences were verified by DNA sequencing (Genewiz). HEK 293 cells were transfected and Renilla luciferase assay were performed as described in Example 1.

[2] = tested on: Renilla luciferase expression; assay: Renilla luciferase assay of HEK 293 cells transfected with U1_theo riboswitch constructs, with or without theophylline; format: cell-based; conditions: for change of luciferase activity after theophylline treatment (in words): with vs without theophylline
Method: as §1, §2
Oligonucleotides containing either the full length of sequences of the stem from the stem-loop structure and theophylline aptamer or the truncated sequences of the stem, were synthesized (IDT) and cloned into pRL-SV40 vector using the Gibson Assembly Cloning Kit (NEB). Construct sequences were verified by DNA sequencing (Genewiz).
Transfection and aptamer ligand treatment: HEK 293 cells were transfected as described in Example 1. Four hours after transfection, the media was aspirated, and new media with or without 3 mM theophylline was added. A Renilla luciferase assay was performed 20 to 24 hours after theophylline treatment as described in Example 1. The induction fold was expressed as the quotient of luciferase activity obtained in the presence of aptamer ligand divided by the value obtained in the absence of the aptamer ligand.
Oligos containing 4 copies of the U1_theo_8_1 sequence in tandem were synthesized (IDT) and cloned using Gibson strategy and cloning kit (NEB). HEK 293 cells were transfected and Renilla luciferase assay was performed as described in Example 4.

B1: U1 87-9 SL: 9 nt U1 site embedded in a stem-loop structure in pRL-SV40 (nucleic acid)
DNA: TCAAATCGTTCGTTGAGCGAGTTCTCAAAAATGAACAATAATTCTAGAGCGGCCGCTTCGAGCAGACATGATAAGATACATTGATGAGTTTGGACAAACCAAACCCAGGTAAGTTACCGAAAGGTAACTTACCTGGGCAACTAGAATGCAGTGAAAAAAATGCTTTATTTGTGAAATTTGTGATGCTATTGCTTTATTTGTAACCATTATAAGCTGCAATAAACAAGTTAACAACAAC
modifications: in pRL-SV40; U1 87-9 SL in pRL-SV40
notes: 9 nt U1 site embedded in a stem-loop structure in pRL-SV40
B1 was tested, and the “suppressive effect of U1 site on luciferase gene expression (in words)” value (“suppressive effect of U1 site” below) [1] was “completely abolished the suppressive effect of the U1 site” and the “suppressive effect of U1 site” value ([1]; listed as U1 87-9 stem loop) was “completely abolished the suppressive effect”.

B2: 3×U1-140 wt: 3 copies of wild type U1 binding sequence at −140 in pRL-SV40 (nucleic acid)
DNA: TCAAATCGTTCGTTGAGCGAGTTCTCAAAAATGAACAATAATTCTAGACAGGTAAGTAACCAAACAGGTAAGTAACCAAACAGGTAAGTAGCGGCCGCTTCGAGCAGACATGATAAGATACATTGATGAGTTTGGACAAACCACAACTAGAATGCAGTGAAAAAAATGCTTTATTTGTGAAATTTGTGATGCTATTGCTTTATTTGTAACCATTATAAGCTGCAATAAACAAGTTAACAACAAC
modifications: in pRL-SV40; 3xU1-140 wt in pRL-SV40
B2 was tested, and the “reduction fold (luciferase activity of mutant construct / wild type construct)” value [1] was 462 fold.

B3: 87-9: 9-nt truncated U1 site at −87 in pRL-SV40 (nucleic acid)
DNA: TCAAATCGTTCGTTGAGCGAGTTCTCAAAAATGAACAATAATTCTAGAGCGGCCGCTTCGAGCAGACATGATAAGATACATTGATGAGTTTGGACAAACCAGGTAAGTCAACTAGAATGCAGTGAAAAAAATGCTTTATTTGTGAAATTTGTGATGCTATTGCTTTATTTGTAACCATTATAAGCTGCAATAAACAAGTTAACAACAAC
modifications: in pRL-SV40; 87-9 in pRL-SV40
notes: 9-nt truncated U1 site at −87 in pRL-SV40
For B3, the “suppressive effect of U1 site” value [1] was “functioned as well as the 10-nt U1 site”.

B4: 2×U1-140 wt: 2 copies of wild type U1 binding sequence at −140 in pRL-SV40 (nucleic acid)
DNA: TCAAATCGTTCGTTGAGCGAGTTCTCAAAAATGAACAATAATTCTAGACAGGTAAGTAACCAAACAGGTAAGTAGCGGCCGCTTCGAGCAGACATGATAAGATACATTGATGAGTTTGGACAAACCACAACTAGAATGCAGTGAAAAAAATGCTTTATTTGTGAAATTTGTGATGCTATTGCTTTATTTGTAACCATTATAAGCTGCAATAAACAAGTTAACAACAAC
modifications: in pRL-SV40; 2xU1-140 wt in pRL-SV40
In the case of B4, the “reduction fold (luciferase activity of mutant construct / wild type construct)” value [1] is reported as 272 fold.

B5: U1_theo_9: U1 site stem linked to theophylline aptamer in pRL-SV40, stem truncation series (nucleic acid)
DNA: TCAAATCGTTCGTTGAGCGAGTTCTCAAAAATGAACAATAATTCTAGAGCGGCCGCTTCGAGCAGACATGATAAGATACATTGATGAGTTTGGACAAACCAAACCCAGGTAAGTATACCAGCCGAAAGGCCCTTGGCAGACTTACCTGGGCAACTAGAATGCAGTGAAAAAAATGCTTTATTTGTGAAATTTGTGATGCTATTGCTTTATTTGTAACCATTATAAGCTGCAATAAACAAGTTAACAACAAC
modifications: in pRL-SV40; U1_theo_9 in pRL-SV40
notes: U1 site stem linked to theophylline aptamer in pRL-SV40, stem truncation series
For B5, the “change of luciferase activity after theophylline treatment (in words)” value (“change of luciferase activity” for short) [2] was “small increase in luciferase activity” and the “change of luciferase activity” value ([2]; listed as 9) was “increased”.

B6: U1-87 mut: 10-nt mutant U1 binding sequence at −87 in pRL-SV40 (nucleic acid)
DNA: TCAAATCGTTCGTTGAGCGAGTTCTCAAAAATGAACAATAATTCTAGAGCGGCCGCTTCGAGCAGACATGATAAGATACATTGATGAGTTTGGACAAACCATGGAACTACAACTAGAATGCAGTGAAAAAAATGCTTTATTTGTGAAATTTGTGATGCTATTGCTTTATTTGTAACCATTATAAGCTGCAATAAACAAGTTAACAACAAC
modifications: in pRL-SV40; U1-87 mut in pRL-SV40
In the case of B6, the “suppressive effect of U1 site” value [1] is reported as “did not have any suppressive effect on luciferase gene expression”.

B7: U1-87 wt: 10-nt consensus U1 binding sequence 87 nt upstream of poly(A) signal in 3′ UTR of pRL-SV40 (nucleic acid)
DNA: TCAAATCGTTCGTTGAGCGAGTTCTCAAAAATGAACAATAATTCTAGAGCGGCCGCTTCGAGCAGACATGATAAGATACATTGATGAGTTTGGACAAACCAGGTAAGTACAACTAGAATGCAGTGAAAAAAATGCTTTATTTGTGAAATTTGTGATGCTATTGCTTTATTTGTAACCATTATAAGCTGCAATAAACAAGTTAACAACAAC
modifications: in pRL-SV40; U1-87 wt in pRL-SV40
B7 was tested, and the “reduction fold (luciferase activity of mutant construct / wild type construct)” value [1] was 50 fold and the “inhibition of Renilla luciferase expression/activity” value [1] was 98%.

B8: U1_theo_8: U1 site stem linked to theophylline aptamer in pRL-SV40, stem truncation series (nucleic acid)
DNA: TCAAATCGTTCGTTGAGCGAGTTCTCAAAAATGAACAATAATTCTAGAGCGGCCGCTTCGAGCAGACATGATAAGATACATTGATGAGTTTGGACAAACCAAACCCAGGTAAGTGATACCAGCCGAAAGGCCCTTGGCAGCACTTACCTGGGCAACTAGAATGCAGTGAAAAAAATGCTTTATTTGTGAAATTTGTGATGCTATTGCTTTATTTGTAACCATTATAAGCTGCAATAAACAAGTTAACAACAAC
modifications: in pRL-SV40; U1_theo_8 in pRL-SV40
notes: as for B5
For B8, the “induction fold of luciferase activity (theophylline treated / untreated)” value ([2]; 3 mM theophylline, 20 to 24 hours) was 1.3 fold, the “change of luciferase activity” value [2] was “small increase in luciferase activity” and the “change of luciferase activity” value ([2]; listed as 8) was “increased”.

B9: U1-140 mut: mutant U1 binding sequence at −140 in pRL-SV40 (nucleic acid)
DNA: TCAAATCGTTCGTTGAGCGAGTTCTCAAAAATGAACAATAATTCTAGACATGGAACTAGCGGCCGCTTCGAGCAGACATGATAAGATACATTGATGAGTTTGGACAAACCACAACTAGAATGCAGTGAAAAAAATGCTTTATTTGTGAAATTTGTGATGCTATTGCTTTATTTGTAACCATTATAAGCTGCAATAAACAAGTTAACAACAAC
modifications: in pRL-SV40; U1-140 mut in pRL-SV40
With B9 the “suppressive effect of U1 site” value [1] was “did not cause inhibition of luciferase gene expression”.

B10: U1-140 wt: consensus U1 binding sequence at −140 in pRL-SV40 (nucleic acid)
DNA: TCAAATCGTTCGTTGAGCGAGTTCTCAAAAATGAACAATAATTCTAGACAGGTAAGTAGCGGCCGCTTCGAGCAGACATGATAAGATACATTGATGAGTTTGGACAAACCACAACTAGAATGCAGTGAAAAAAATGCTTTATTTGTGAAATTTGTGATGCTATTGCTTTATTTGTAACCATTATAAGCTGCAATAAACAAGTTAACAACAAC
modifications: in pRL-SV40; U1-140 wt in pRL-SV40
With B10 the “reduction fold (luciferase activity of mutant construct / wild type construct)” value [1] was 12 fold and the “inhibition of Renilla luciferase expression/activity” value [1] was 91%.

B11: U1 87-9 SL broken: control sequence in which no stem is formed, in pRL-SV40 (nucleic acid)
DNA: TCAAATCGTTCGTTGAGCGAGTTCTCAAAAATGAACAATAATTCTAGAGCGGCCGCTTCGAGCAGACATGATAAGATACATTGATGAGTTTGGACAAACCAAACCCAGGTAAGTTACCGAAAAAAACAAACAAAAAACAACTAGAATGCAGTGAAAAAAATGCTTTATTTGTGAAATTTGTGATGCTATTGCTTTATTTGTAACCATTATAAGCTGCAATAAACAAGTTAACAACAAC
modifications: in pRL-SV40; U1 87-9 SL broken in pRL-SV40
B11 was tested, and the “suppressive effect of U1 site” value [1] was “showed little effect on the suppressive function of U1 site”.
